Measured values published in US20020199219A1 (UNIVERSITY OF CALIFORNIA SAN DIEGO, published 2002).

Target: T1, ABH1 polypeptide (Arabidopsis thaliana, UniProt Q9SIU2 1-848)
T1 construct: Tested in a yeast two-hybrid experiment and expressed in yeast cells; also called Arabidopsis CBP80 homolog
T1 sequence: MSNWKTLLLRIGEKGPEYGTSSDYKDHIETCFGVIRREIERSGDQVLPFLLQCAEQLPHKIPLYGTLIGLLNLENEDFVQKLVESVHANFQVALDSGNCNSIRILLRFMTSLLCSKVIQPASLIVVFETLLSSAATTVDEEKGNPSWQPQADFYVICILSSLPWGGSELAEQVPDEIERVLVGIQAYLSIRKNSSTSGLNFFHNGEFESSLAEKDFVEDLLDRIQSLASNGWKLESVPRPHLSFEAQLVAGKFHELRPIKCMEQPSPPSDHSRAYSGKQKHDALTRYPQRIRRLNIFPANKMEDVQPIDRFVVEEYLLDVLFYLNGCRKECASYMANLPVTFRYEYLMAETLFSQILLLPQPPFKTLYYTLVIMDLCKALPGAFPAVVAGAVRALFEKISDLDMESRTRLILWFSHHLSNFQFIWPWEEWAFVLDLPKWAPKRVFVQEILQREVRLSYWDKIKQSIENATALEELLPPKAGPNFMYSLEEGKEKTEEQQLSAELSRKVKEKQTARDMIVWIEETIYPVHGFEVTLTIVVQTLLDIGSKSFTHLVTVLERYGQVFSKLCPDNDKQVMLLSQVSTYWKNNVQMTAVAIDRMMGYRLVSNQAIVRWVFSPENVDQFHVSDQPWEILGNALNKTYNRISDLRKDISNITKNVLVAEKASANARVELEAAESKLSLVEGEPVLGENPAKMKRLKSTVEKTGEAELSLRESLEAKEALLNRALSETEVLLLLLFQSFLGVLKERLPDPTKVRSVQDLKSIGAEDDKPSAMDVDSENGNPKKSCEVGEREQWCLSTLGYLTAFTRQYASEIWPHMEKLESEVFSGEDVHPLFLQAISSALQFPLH
Assay: yeast two-hybrid

binding result: binds
B1: Arabidopsis CBP20 homolog (AtCBP20) (other, UniProt Q9XFD1 1-257, looked up)
chain: MASLFKEQAKLSAYRDRRFSGTQEEFDEALRASTTVYIGNVSFYTTEEQLYELFSRAGEIKKIIMGLDKNTKTPCGFCFVLFYSREDTEDAVKYISGTILDDRPIRVDFDWGFQEGRQWGRGRSGGQVRDEYRTDYDPARGGYGKLVQKELEAQRQLVDYGTGSLGAYPQAAPTNYGNGRRGGGNYGQGGQNRHGRGDYHRKRQRDDDRYGRDNSRRNTDHESRRDTDSDMRPEKNPRFRESGDSDDDGEDDRKRRS
notes: The limits of the construct and the two-hybrid fusion domains are not described
